# T1: APBA1_1, Q02410
# T1 sequence (Q02410 651-752, limits assumed, looked up): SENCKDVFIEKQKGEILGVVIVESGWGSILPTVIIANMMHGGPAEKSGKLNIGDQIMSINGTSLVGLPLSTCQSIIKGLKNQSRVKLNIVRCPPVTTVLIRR
# T2: APBA1_2, Q02410
# T2 sequence (Q02410 742-832, limits assumed, looked up): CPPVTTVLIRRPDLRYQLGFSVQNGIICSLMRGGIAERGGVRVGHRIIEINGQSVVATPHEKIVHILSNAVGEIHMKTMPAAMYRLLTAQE
# T3: DVL3, Q92997
# T3 sequence (Q92997 244-331, limits assumed, looked up): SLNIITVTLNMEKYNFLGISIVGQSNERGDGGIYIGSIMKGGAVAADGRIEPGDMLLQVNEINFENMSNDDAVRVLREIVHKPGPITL
# T4: GRIP1_5, Q9Y3R0
# T4 sequence (Q9Y3R0 568-668, limits assumed, looked up): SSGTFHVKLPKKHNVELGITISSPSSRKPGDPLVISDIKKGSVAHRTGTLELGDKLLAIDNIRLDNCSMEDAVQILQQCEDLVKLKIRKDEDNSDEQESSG
# T5: LIN7C, Q9NUP9
# T5 sequence (Q9NUP9 88-185, limits assumed, looked up): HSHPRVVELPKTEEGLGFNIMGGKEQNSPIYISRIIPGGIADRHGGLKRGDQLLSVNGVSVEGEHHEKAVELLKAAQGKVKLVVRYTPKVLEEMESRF
# T6: LNX2_3, Q8N448
# T6 sequence (Q8N448 463-564, limits assumed, looked up): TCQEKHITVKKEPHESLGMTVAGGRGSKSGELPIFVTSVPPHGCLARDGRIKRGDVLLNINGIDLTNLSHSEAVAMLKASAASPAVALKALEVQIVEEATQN
# T7: MPDZ_12, O75970
# T7 sequence (O75970 1857-1958, limits assumed, looked up): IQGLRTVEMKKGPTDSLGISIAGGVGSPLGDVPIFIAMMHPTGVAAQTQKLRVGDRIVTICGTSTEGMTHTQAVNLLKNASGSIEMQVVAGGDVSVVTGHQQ
# T8: NHERF3_4, Q5T2W1
# T8 sequence (Q5T2W1 373-468, limits assumed, looked up): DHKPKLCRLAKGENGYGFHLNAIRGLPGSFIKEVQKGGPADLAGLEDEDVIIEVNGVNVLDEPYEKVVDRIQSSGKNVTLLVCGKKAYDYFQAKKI
# T9: PDZD2_2, O15018
# T9 sequence (O15018 329-429, limits assumed, looked up): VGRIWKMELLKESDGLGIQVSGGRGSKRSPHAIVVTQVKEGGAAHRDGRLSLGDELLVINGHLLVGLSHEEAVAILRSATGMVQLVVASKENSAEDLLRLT
# T10: SNTG1, Q9NSN8
# T10 sequence (Q9NSN8 52-150, limits assumed, looked up): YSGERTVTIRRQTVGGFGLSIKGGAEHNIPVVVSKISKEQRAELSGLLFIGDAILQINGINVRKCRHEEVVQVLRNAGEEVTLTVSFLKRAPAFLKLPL
# T11: SNTG2, Q9NY99
# T11 sequence (Q9NY99 68-166, limits assumed, looked up): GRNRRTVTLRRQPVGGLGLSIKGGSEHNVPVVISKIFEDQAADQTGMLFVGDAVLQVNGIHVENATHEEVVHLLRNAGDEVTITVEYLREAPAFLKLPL
# Legend:
# Assay in all cases: holdup assay
# Design in all cases: key: below the threshold = too weak to quantify, mostly under pKd 3.1 to 4
# Details in all cases: plain residues with an end cap or a label only (N-terminal biotin on a linker: ahx)
# APBA1_1, Q02410 = molecular target: T1, APBA1_1, Q02410
# APBA1_2, Q02410 = molecular target: T2, APBA1_2, Q02410
# DLG1_1, Q12959 = molecular target: DLG1_1, Q12959
# DLG4_1, P78352 = molecular target: DLG4_1, P78352
# Sequence of DLG4_1, P78352 (P78352 62-152): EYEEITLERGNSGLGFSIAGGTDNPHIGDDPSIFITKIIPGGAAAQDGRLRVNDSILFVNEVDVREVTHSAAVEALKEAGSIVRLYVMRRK
# DLG4_3, P78352 = molecular target: DLG4_3, P78352
# Sequence of DLG4_3, P78352 (P78352 306-403): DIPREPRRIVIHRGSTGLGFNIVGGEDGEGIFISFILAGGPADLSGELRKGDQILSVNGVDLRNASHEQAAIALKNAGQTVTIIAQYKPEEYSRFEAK
# DVL3, Q92997 = molecular target: T3, DVL3, Q92997
# FRMPD2_1, Q68DX3 = molecular target: FRMPD2_1, Q68DX3
# Sequence of FRMPD2_1, Q68DX3 (Q68DX3 770-861): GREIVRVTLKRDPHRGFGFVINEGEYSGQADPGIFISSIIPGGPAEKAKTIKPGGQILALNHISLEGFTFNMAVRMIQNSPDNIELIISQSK
# GIPC2, Q8TF65 = molecular target: GIPC2, Q8TF65
# Sequence of GIPC2, Q8TF65 (Q8TF65 112-203): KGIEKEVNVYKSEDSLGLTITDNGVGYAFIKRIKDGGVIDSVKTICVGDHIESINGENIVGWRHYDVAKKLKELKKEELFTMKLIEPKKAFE
# GORASP2, Q9H8Y8 = molecular target: GORASP2, Q9H8Y8
# GRIP1_5, Q9Y3R0 = molecular target: T4, GRIP1_5, Q9Y3R0
# GRIP2_4, Q9C0E4 = molecular target: GRIP2_4, Q9C0E4
# Sequence of GRIP2_4, Q9C0E4 (Q9C0E4 446-548): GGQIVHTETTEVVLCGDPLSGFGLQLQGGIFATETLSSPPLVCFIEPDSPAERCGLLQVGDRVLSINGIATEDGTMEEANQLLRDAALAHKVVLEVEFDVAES
# GRIP2_7, Q9C0E4 = molecular target: GRIP2_7, Q9C0E4
# Sequence of GRIP2_7, Q9C0E4 (Q9C0E4 934-1023): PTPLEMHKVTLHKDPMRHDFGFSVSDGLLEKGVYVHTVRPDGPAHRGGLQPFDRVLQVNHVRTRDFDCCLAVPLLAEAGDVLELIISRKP
# IL16_3, Q14005 = molecular target: IL16_3, Q14005
# Sequence of IL16_3, Q14005 (Q14005 1107-1207): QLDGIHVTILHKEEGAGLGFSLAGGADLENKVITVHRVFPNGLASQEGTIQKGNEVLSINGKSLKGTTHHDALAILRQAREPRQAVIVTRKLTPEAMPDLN
# Inadl_10, Q8NI35 = molecular target: Inadl_10, Q8NI35
# Sequence of Inadl_10, Q8NI35 (Q8NI35 1673-1763): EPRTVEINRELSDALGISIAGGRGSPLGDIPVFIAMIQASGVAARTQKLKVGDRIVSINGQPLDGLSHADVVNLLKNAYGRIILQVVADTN
# Inadl_8, Q8NI35 = molecular target: Inadl_8, Q8NI35
# Sequence of Inadl_8, Q8NI35 (Q8NI35 1425-1530): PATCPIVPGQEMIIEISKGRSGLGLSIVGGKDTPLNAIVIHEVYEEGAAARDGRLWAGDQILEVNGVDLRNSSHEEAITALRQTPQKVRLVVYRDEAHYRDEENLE
# LIMK2, P53671 = molecular target: LIMK2, P53671
# Sequence of LIMK2, P53671 (P53671 143-248): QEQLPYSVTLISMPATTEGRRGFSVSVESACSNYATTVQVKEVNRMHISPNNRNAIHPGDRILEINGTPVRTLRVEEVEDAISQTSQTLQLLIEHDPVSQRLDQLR
# LIN7C, Q9NUP9 = molecular target: T5, LIN7C, Q9NUP9
# LNX2_3, Q8N448 = molecular target: T6, LNX2_3, Q8N448
# MAST2, Q6P0Q8 = molecular target: MAST2, Q6P0Q8
# Sequence of MAST2, Q6P0Q8 (Q6P0Q8 1099-1202): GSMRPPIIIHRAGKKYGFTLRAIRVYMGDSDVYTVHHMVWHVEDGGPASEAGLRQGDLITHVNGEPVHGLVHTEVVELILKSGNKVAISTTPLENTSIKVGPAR
# MPDZ_12, O75970 = molecular target: T7, MPDZ_12, O75970
# NHERF3_4, Q5T2W1 = molecular target: T8, NHERF3_4, Q5T2W1
# NHERF4_4, Q86UT5 = molecular target: NHERF4_4, Q86UT5
# Sequence of NHERF4_4, Q86UT5 (Q86UT5 464-550): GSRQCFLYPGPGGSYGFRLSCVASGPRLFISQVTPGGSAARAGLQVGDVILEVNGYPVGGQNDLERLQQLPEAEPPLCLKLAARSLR
# PDZD2_2, O15018 = molecular target: T9, PDZD2_2, O15018
# PTPN3, P26045 = molecular target: PTPN3, P26045
# Sequence of PTPN3, P26045 (P26045 505-587): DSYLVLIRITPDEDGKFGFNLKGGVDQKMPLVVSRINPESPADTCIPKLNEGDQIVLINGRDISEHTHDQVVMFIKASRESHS
# SCRIB_2, Q14160 = molecular target: SCRIB_2, Q14160
# Sequence of SCRIB_2, Q14160 (Q14160 857-960): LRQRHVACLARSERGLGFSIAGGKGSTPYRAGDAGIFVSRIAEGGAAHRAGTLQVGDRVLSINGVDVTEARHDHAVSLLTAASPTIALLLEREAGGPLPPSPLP
# SNTG1, Q9NSN8 = molecular target: T10, SNTG1, Q9NSN8
# SNTG2, Q9NY99 = molecular target: T11, SNTG2, Q9NY99
"pKd (APBA1_1, Q02410)","pKd (APBA1_2, Q02410)","pKd (DLG1_1, Q12959)","pKd (DLG4_1, P78352)","pKd (DLG4_3, P78352)","pKd (DVL3, Q92997)","pKd (FRMPD2_1, Q68DX3)","pKd (GIPC2, Q8TF65)","pKd (GORASP2, Q9H8Y8)","pKd (GRIP1_5, Q9Y3R0)","pKd (GRIP2_4, Q9C0E4)","pKd (GRIP2_7, Q9C0E4)","pKd (IL16_3, Q14005)","pKd (Inadl_10, Q8NI35)","pKd (Inadl_8, Q8NI35)","pKd (LIMK2, P53671)","pKd (LIN7C, Q9NUP9)","pKd (LNX2_3, Q8N448)","pKd (MAST2, Q6P0Q8)","pKd (MPDZ_12, O75970)",Binder,further results
below the threshold,below the threshold,below the threshold,below the threshold,below the threshold,below the threshold,below the threshold,3.78,below the threshold,below the threshold,below the threshold,below the threshold,3.53,3.6,4.18,below the threshold,below the threshold,below the threshold,below the threshold,below the threshold,"TESNLQTSSC [CGN, Q9P2M7]","pKd (NHERF3_4, Q5T2W1): below the threshold; pKd (NHERF4_4, Q86UT5): below the threshold; pKd (PDZD2_2, O15018): 4.1; pKd (PTPN3, P26045): below the threshold; pKd (SCRIB_2, Q14160): below the threshold; pKd (SNTG1, Q9NSN8): below the threshold; pKd (SNTG2, Q9NY99): below the threshold"
below the threshold,below the threshold,below the threshold,below the threshold,below the threshold,below the threshold,below the threshold,below the threshold,below the threshold,below the threshold,below the threshold,below the threshold,below the threshold,below the threshold,below the threshold,below the threshold,below the threshold,below the threshold,below the threshold,below the threshold,"APSRKLNTEI [TIAM1, Q13009]","pKd (NHERF3_4, Q5T2W1): below the threshold; pKd (NHERF4_4, Q86UT5): below the threshold; pKd (PDZD2_2, O15018): below the threshold; pKd (PTPN3, P26045): below the threshold; pKd (SCRIB_2, Q14160): below the threshold; pKd (SNTG1, Q9NSN8): below the threshold; pKd (SNTG2, Q9NY99): below the threshold"
